Measurements reported in patent CN113214400A (FUKANG SHANGHAI HEALTH TECH CO LTD, dated 2021).

Experiments:
[1] = biological target: T1, 人PD-L1 (全长, 表达于CHO-K1细胞 WBP315.CHO-K1.hPro1.C11) (human, UniProt Q9NZQ7 19-290); experiment: flow cytometry on CHO-K1 cells expressing human PD-L1
T1 construct: whole, on cells; also called human PD-L1; hPD-L1

[2] = biological target: T2, 小鼠PD-L1 (全长, 表达于293F细胞 WBP315.293F.mPro1.C1) (mouse, UniProt Q9EP73 19-290); experiment: flow cytometry on 293F cells expressing mouse PD-L1
T2 construct: whole, on cells; also called mouse PD-L1
T2 sequence (Q9EP73 19-290): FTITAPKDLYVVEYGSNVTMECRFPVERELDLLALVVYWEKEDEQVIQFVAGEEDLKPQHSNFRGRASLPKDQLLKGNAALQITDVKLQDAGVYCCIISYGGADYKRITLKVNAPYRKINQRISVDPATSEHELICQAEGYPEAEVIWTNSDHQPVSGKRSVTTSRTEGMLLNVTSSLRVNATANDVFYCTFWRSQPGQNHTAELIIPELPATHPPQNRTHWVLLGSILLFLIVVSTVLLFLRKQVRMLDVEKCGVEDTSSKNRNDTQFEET

T1 sequence (Q9NZQ7 19-290): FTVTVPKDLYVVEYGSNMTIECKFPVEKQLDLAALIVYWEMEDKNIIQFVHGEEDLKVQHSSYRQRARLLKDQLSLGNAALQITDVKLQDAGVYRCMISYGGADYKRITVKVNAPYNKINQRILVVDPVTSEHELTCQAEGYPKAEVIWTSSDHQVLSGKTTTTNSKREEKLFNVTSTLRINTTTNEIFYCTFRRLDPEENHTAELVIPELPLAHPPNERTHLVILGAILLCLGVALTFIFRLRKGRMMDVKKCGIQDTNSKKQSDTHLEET

- binding result [1]: binds
- binding result [2]: binds
B1: W3156-AP3R2-1A3-z12-hIgG1 (Fc fusion)
chain: EVQLVESGGGLVQPGGSLRLSCAASGHFSNLAVNWFRQAPGKERELVAGILWSGGSTFYADSVKGRFTISRGNAENMLYLQMNSLRAEDTAVYYCNTGTNWGQGTLVTVSS
notes: tested as hIgG1 format; also called 抗PD-L1 VHH抗体; 亲本抗体 (PD-L1 arm); not shown: hIgG1 part (hinge/Fc) of the VHH-hIgG1 format
